Experiments:
[1] = molecular target: T1, Mycobacterium tuberculosis DnaK, full length, wild type (Mycobacterium tuberculosis, UniProt P9WMJ9 1-625); test: ITC; as a1, with 2 mM ATP added to both the DnaK and the GrpE solution; conditions: both partners purified
T1 construct: DnaK (Hsp70 chaperone) of Mycobacterium tuberculosis, full length; also called Mtb DnaK; WT DnaK

[2] = molecular target: T1, Mycobacterium tuberculosis DnaK, full …; test: ITC; as a1, with 2 mM ADP added to both the DnaK and the GrpE solution; conditions: both partners purified
SEC = molecular target: the molecule itself; test: SEC

B1: Mycobacterium tuberculosis GrpE, full length, wild type (natural protein)
chain: MTDGNQKPDGNSGEQVTVTDKRRIDPETGEVRHVPPGDMPGGTAAADAAHTEDKVAELTADLQRVQADFANYRKRALRDQQAAADRAKASVVSQLLGVLDDLERARKHGDLESGPLKSVADKLDSALTGLGLVAFGAEGEDFDPVLHEAVQHEGDGGQGSKPVIGTVMRQGYQLGEQVLRHALVGVVDTVVVDAAELESVDDGTAVADTAENDQADQGNSADTSGEQAESEPSGS
notes: GrpE (nucleotide exchange factor) of Mycobacterium tuberculosis, full length; also called Mtb GrpE; WT GrpE
[1]
  Kd: 20.7 µM
  stoichiometry N: 0.07
[2]
  Kd: 1.79 µM
  stoichiometry N: 0.69
SEC
  stoichiometry N: 2

From article PMC10803776, “Structure of the M. tuberculosis DnaK−GrpE complex reveals how key DnaK roles are controlled” (Nature Communications, 2024)
